In this experiment the target is Recombinant FIP-sch3 from Stachybotrys chartarum (Stachybotrys chartarum IBT 7711). In words: SEC; Superdex 75 (10/300 GL) gel filtration in PBS (10 mM, pH 7.2) after the GST tag was removed; markers 66, 43, 29 and 17 kDa; calculated mass about 28.3 kDa against 14.1 kDa for the monomer.

Drawing on paper PMC5173029, this text covers stoichiometry N for 1 substance.

As usually defined, the stoichiometry N is the number of molecules, sites or subunits per partner or assembly.

Take “Recombinant FIP-sch3 from Stachybotrys chartarum (natural protein)”: the stoichiometry N is 2.
